# Experimental data reported in paper PMC5131608.
# Target: Tt1219^33-236 (T. thermophilus HB8)
# Assay: SEC; size exclusion chromatography of Tt1219^33-236 alone (Supplementary Fig. 1)
substance,measurement,value
Tt1219^33-236 (domain or fragment),stoichiometry N,2
